Experimental data taken from article PMC10786891, “Massively parallel profiling of RNA-targeting CRISPR-Cas13d”.

T1: EsCas13d, nuclease-dead (Eubacterium siraeum, UniProt B0MS50, R295A;H300A;R849A;H854A)
T1 sequence: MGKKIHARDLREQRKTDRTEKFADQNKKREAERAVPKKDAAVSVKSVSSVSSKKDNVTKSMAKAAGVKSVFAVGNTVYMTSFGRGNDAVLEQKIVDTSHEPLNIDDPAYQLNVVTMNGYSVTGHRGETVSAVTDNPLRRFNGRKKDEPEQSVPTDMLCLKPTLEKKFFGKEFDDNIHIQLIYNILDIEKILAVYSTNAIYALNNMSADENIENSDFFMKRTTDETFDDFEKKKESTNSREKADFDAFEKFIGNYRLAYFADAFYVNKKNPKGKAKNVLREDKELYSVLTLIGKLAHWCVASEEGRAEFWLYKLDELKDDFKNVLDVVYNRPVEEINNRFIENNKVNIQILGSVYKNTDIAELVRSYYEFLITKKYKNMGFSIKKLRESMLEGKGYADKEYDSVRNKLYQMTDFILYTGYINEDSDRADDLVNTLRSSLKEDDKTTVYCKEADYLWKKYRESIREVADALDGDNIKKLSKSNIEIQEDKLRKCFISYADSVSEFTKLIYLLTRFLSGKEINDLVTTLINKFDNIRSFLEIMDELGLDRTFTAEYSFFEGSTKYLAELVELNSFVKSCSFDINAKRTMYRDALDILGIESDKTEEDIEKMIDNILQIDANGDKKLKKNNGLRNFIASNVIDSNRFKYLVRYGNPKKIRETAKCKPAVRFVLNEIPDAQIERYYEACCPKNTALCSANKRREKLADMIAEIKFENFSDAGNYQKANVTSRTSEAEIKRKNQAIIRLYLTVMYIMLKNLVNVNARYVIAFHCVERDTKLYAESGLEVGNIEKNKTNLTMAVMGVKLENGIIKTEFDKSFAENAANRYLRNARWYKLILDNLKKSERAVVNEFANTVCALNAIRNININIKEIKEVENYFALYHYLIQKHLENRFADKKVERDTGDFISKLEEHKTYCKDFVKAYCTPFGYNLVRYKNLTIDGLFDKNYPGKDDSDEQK

B1: target 1 U8C,A9U (mixed)
RNA 1: CACCCGUGCAAAAAUGCAGGGGUCUAAAACUGAGCGGAUAACCUCUCUAUGG
RNA 2: GGGAAUGGAUCCACAUCUACGAAUUCGUACCAUAGAGAGGUUUCCCGCUCACCGAGAUCGGAAGAGCACACGU
B2: target 1 U3A (mixed)
RNA 1: CACCCGUGCAAAAAUGCAGGGGUCUAAAACUGAGCGGAUAACCUCUCUAUGG
RNA 2: GGGAAUGGAUCCACAUCUACGAAUUCGUACCAUAGAGAGGUUAUCCGCACACCGAGAUCGGAAGAGCACACGU
B3: target 1 insG 3' of 16,insA 3' of 3 (mixed)
RNA 1: CACCCGUGCAAAAAUGCAGGGGUCUAAAACUGAGCGGAUAACCUCUCUAUGG
RNA 2: GGGAAUGGAUCCACAUCUACGAAUUCGUACCAUAGAGGAGGUUAUCCGCUACACCGAGAUCGGAAGAGCACACGU
B4: target 1 C4U,A9C (mixed)
RNA 1: CACCCGUGCAAAAAUGCAGGGGUCUAAAACUGAGCGGAUAACCUCUCUAUGG
RNA 2: GGGAAUGGAUCCACAUCUACGAAUUCGUACCAUAGAGAGGUUCUCCGUUCACCGAGAUCGGAAGAGCACACGU
B5: target 1 A1U,U3C (mixed)
RNA 1: CACCCGUGCAAAAAUGCAGGGGUCUAAAACUGAGCGGAUAACCUCUCUAUGG
RNA 2: GGGAAUGGAUCCACAUCUACGAAUUCGUACCAUAGAGAGGUUAUCCGCCCUCCGAGAUCGGAAGAGCACACGU
B6: target 1 insG 3' of 16,insU 3' of 1 (mixed)
RNA 1: CACCCGUGCAAAAAUGCAGGGGUCUAAAACUGAGCGGAUAACCUCUCUAUGG
RNA 2: GGGAAUGGAUCCACAUCUACGAAUUCGUACCAUAGAGGAGGUUAUCCGCUCAUCCGAGAUCGGAAGAGCACACGU
B7: target 1 del2,del4 (mixed)
RNA 1: CACCCGUGCAAAAAUGCAGGGGUCUAAAACUGAGCGGAUAACCUCUCUAUGG
RNA 2: GGGAAUGGAUCCACAUCUACGAAUUCGUACCAUAGAGAGGUUAUCCGUACCGAGAUCGGAAGAGCACACGU
B8: target 1 A1C,G13C (mixed)
RNA 1: CACCCGUGCAAAAAUGCAGGGGUCUAAAACUGAGCGGAUAACCUCUCUAUGG
RNA 2: GGGAAUGGAUCCACAUCUACGAAUUCGUACCAUAGAGACGUUAUCCGCUCCCCGAGAUCGGAAGAGCACACGU
B9: target 1 insG 3' of 22,insG 3' of 9 (mixed)
RNA 1: CACCCGUGCAAAAAUGCAGGGGUCUAAAACUGAGCGGAUAACCUCUCUAUGG
RNA 2: GGGAAUGGAUCCACAUCUACGAAUUCGUACGCAUAGAGAGGUUAGUCCGCUCACCGAGAUCGGAAGAGCACACGU
B10: target 1 A1C,U11C (mixed)
RNA 1: CACCCGUGCAAAAAUGCAGGGGUCUAAAACUGAGCGGAUAACCUCUCUAUGG
RNA 2: GGGAAUGGAUCCACAUCUACGAAUUCGUACCAUAGAGAGGCUAUCCGCUCCCCGAGAUCGGAAGAGCACACGU
B11: target 1 A1U,C22U (mixed)
RNA 1: CACCCGUGCAAAAAUGCAGGGGUCUAAAACUGAGCGGAUAACCUCUCUAUGG
RNA 2: GGGAAUGGAUCCACAUCUACGAAUUCGUAUCAUAGAGAGGUUAUCCGCUCUCCGAGAUCGGAAGAGCACACGU
B12: target 1 insA 3' of 11,insU 3' of 6 (mixed)
RNA 1: CACCCGUGCAAAAAUGCAGGGGUCUAAAACUGAGCGGAUAACCUCUCUAUGG
RNA 2: GGGAAUGGAUCCACAUCUACGAAUUCGUACCAUAGAGAGGUAUAUCCUGCUCACCGAGAUCGGAAGAGCACACGU
B13: target 1 U11A,G17A (mixed)
RNA 1: CACCCGUGCAAAAAUGCAGGGGUCUAAAACUGAGCGGAUAACCUCUCUAUGG
RNA 2: GGGAAUGGAUCCACAUCUACGAAUUCGUACCAUAAAGAGGAUAUCCGCUCACCGAGAUCGGAAGAGCACACGU
B14: target 1 C2G,C6A (mixed)
RNA 1: CACCCGUGCAAAAAUGCAGGGGUCUAAAACUGAGCGGAUAACCUCUCUAUGG
RNA 2: GGGAAUGGAUCCACAUCUACGAAUUCGUACCAUAGAGAGGUUAUCAGCUGACCGAGAUCGGAAGAGCACACGU
B15: target 1 U19C,A20C (mixed)
RNA 1: CACCCGUGCAAAAAUGCAGGGGUCUAAAACUGAGCGGAUAACCUCUCUAUGG
RNA 2: GGGAAUGGAUCCACAUCUACGAAUUCGUACCCCAGAGAGGUUAUCCGCUCACCGAGAUCGGAAGAGCACACGU
B16: target 1 U3G,G12A (mixed)
RNA 1: CACCCGUGCAAAAAUGCAGGGGUCUAAAACUGAGCGGAUAACCUCUCUAUGG
RNA 2: GGGAAUGGAUCCACAUCUACGAAUUCGUACCAUAGAGAGAUUAUCCGCGCACCGAGAUCGGAAGAGCACACGU
B17: target 1 insC 3' of 19,insU 3' of 2 (mixed)
RNA 1: CACCCGUGCAAAAAUGCAGGGGUCUAAAACUGAGCGGAUAACCUCUCUAUGG
RNA 2: GGGAAUGGAUCCACAUCUACGAAUUCGUACCAUCAGAGAGGUUAUCCGCUCUACCGAGAUCGGAAGAGCACACGU
B18: target 1 U8G,G13A (mixed)
RNA 1: CACCCGUGCAAAAAUGCAGGGGUCUAAAACUGAGCGGAUAACCUCUCUAUGG
RNA 2: GGGAAUGGAUCCACAUCUACGAAUUCGUACCAUAGAGAAGUUAGCCGCUCACCGAGAUCGGAAGAGCACACGU
B19: target 1 U11C,G12C (mixed)
RNA 1: CACCCGUGCAAAAAUGCAGGGGUCUAAAACUGAGCGGAUAACCUCUCUAUGG
RNA 2: GGGAAUGGAUCCACAUCUACGAAUUCGUACCAUAGAGAGCCUAUCCGCUCACCGAGAUCGGAAGAGCACACGU
B20: target 1 C4G,A18G (mixed)
RNA 1: CACCCGUGCAAAAAUGCAGGGGUCUAAAACUGAGCGGAUAACCUCUCUAUGG
RNA 2: GGGAAUGGAUCCACAUCUACGAAUUCGUACCAUGGAGAGGUUAUCCGGUCACCGAGAUCGGAAGAGCACACGU
B21: target 1 insG 3' of 21,insG 3' of 9 (mixed)
RNA 1: CACCCGUGCAAAAAUGCAGGGGUCUAAAACUGAGCGGAUAACCUCUCUAUGG
RNA 2: GGGAAUGGAUCCACAUCUACGAAUUCGUACCGAUAGAGAGGUUAGUCCGCUCACCGAGAUCGGAAGAGCACACGU
B22: target 1 del2,del17 (mixed)
RNA 1: CACCCGUGCAAAAAUGCAGGGGUCUAAAACUGAGCGGAUAACCUCUCUAUGG
RNA 2: GGGAAUGGAUCCACAUCUACGAAUUCGUACCAUAAGAGGUUAUCCGCUACCGAGAUCGGAAGAGCACACGU
B23: target 1 C4U,U10G (mixed)
RNA 1: CACCCGUGCAAAAAUGCAGGGGUCUAAAACUGAGCGGAUAACCUCUCUAUGG
RNA 2: GGGAAUGGAUCCACAUCUACGAAUUCGUACCAUAGAGAGGUGAUCCGUUCACCGAGAUCGGAAGAGCACACGU
B24: target 1 U11C (mixed)
RNA 1: CACCCGUGCAAAAAUGCAGGGGUCUAAAACUGAGCGGAUAACCUCUCUAUGG
RNA 2: GGGAAUGGAUCCACAUCUACGAAUUCGUACCAUAGAGAGGCUAUCCGCUCACCGAGAUCGGAAGAGCACACGU
B25: target 1 A1U,U11C (mixed)
RNA 1: CACCCGUGCAAAAAUGCAGGGGUCUAAAACUGAGCGGAUAACCUCUCUAUGG
RNA 2: GGGAAUGGAUCCACAUCUACGAAUUCGUACCAUAGAGAGGCUAUCCGCUCUCCGAGAUCGGAAGAGCACACGU
B26: target 1 del1,del4 (mixed)
RNA 1: CACCCGUGCAAAAAUGCAGGGGUCUAAAACUGAGCGGAUAACCUCUCUAUGG
RNA 2: GGGAAUGGAUCCACAUCUACGAAUUCGUACCAUAGAGAGGUUAUCCGUCCCGAGAUCGGAAGAGCACACGU
B27: target 1 C7A,G13A (mixed)
RNA 1: CACCCGUGCAAAAAUGCAGGGGUCUAAAACUGAGCGGAUAACCUCUCUAUGG
RNA 2: GGGAAUGGAUCCACAUCUACGAAUUCGUACCAUAGAGAAGUUAUACGCUCACCGAGAUCGGAAGAGCACACGU
B28: target 1 C22U (mixed)
RNA 1: CACCCGUGCAAAAAUGCAGGGGUCUAAAACUGAGCGGAUAACCUCUCUAUGG
RNA 2: GGGAAUGGAUCCACAUCUACGAAUUCGUAUCAUAGAGAGGUUAUCCGCUCACCGAGAUCGGAAGAGCACACGU

Each binder was assayed against T1, EsCas13d, nuclease-dead (assay: crRNA (strand 1, pre-loaded); Mg2+; 40 mM Tris-HCl pH 7.5, 150 mM NaCl, 6 mM MgCl2, 1 mM DTT, 0.1% Tween-20, 0.2 mg/ml BSA; 25 C; 10 min per concentration, then washed). Conditions: tags: His6-TwinStrep-SUMO cleaved; N-terminal SNAP kept (SNAP-Surface 488); label: 3' end held by stalled T7 RNA polymerase.

In order of rising Kd:
1. B16  4 ± 0.5 nM
2. B14  4.49 ± 0.17 nM
3. B24  8.9 ± 0.6 nM
4. B25  9.3 ± 1 nM
5. B27  10.8 ± 0.7 nM
6. B18  12.6 ± 0.9 nM
7. B2  15 ± 1.3 nM
8. B6  16 ± 1.3 nM
9. B28  16.6 ± 1.1 nM
10. B11  17 ± 2.6 nM
11. B19  17.1 ± 2.1 nM
12. B3  17.7 ± 1.2 nM
13. B12  18.2 ± 0.7 nM
14. B23  18.5 ± 1.9 nM
15. B1  20.5 ± 0.8 nM
16. B5  20.9 ± 1.9 nM
17. B10  22 ± 4 nM
18. B4  26 ± 4 nM
19. B9  28.2 ± 1.8 nM
20. B17  32.7 ± 2.9 nM
21. B20  36 ± 12 nM
22. B7  42 ± 10 nM
23. B26  42 ± 8 nM
24. B8  47 ± 11 nM
25. B21  70 ± 17 nM
26. B22  ~70 nM
27. B13  91 ± 13 nM
28. B15  94 ± 29 nM
